Source: IntAct's records for PubMed 10531343

B1: Synaptotagmin-9 (Mus musculus), Q9R0N9 (parent)
chain: MPGARDALCHQALQLLAELCARGALEHDSCQDFIYHLRDRARPRLRDPDISVSLLTLVVTACGLALFGVSLFVSWKLCWVPWRERGLFSGSKDNNQEPLNYTDTETNEQENSEDFLDPPTPCPDSSMKISHTSPDIPLSTQPGGQENCAHAVRVQRQVTEPTPSARHNSIRRQLNLSNPDFNIQQLQRQEQLTGIGRIKPELYKQRSLDNDDGRRSNSKACGKLNFILKYDCDLEQLIVKIHKAVNLPAKDFSGTSDPYVKIYLLPDRKTKHQTKVHRKTLNPVFDEVFLFPVHYNDLEARKLHFSVYDFDRFSRHDLIGQVVVDHFFDLADFPRECILWKDIEYVTNDNVDLGELMFSLCYLPTAGRLTITIIKARNLKAMDITGASDPYVKVSLMCDGRRLKKRKTSTKRNTLNPVYNEAIVFDVPPESIDQIHLSIAVMDYDRVGHNEVIGVCQVGNEAERLGRDHWSEMLSYPRKPIAHWHSLMEKR
partner: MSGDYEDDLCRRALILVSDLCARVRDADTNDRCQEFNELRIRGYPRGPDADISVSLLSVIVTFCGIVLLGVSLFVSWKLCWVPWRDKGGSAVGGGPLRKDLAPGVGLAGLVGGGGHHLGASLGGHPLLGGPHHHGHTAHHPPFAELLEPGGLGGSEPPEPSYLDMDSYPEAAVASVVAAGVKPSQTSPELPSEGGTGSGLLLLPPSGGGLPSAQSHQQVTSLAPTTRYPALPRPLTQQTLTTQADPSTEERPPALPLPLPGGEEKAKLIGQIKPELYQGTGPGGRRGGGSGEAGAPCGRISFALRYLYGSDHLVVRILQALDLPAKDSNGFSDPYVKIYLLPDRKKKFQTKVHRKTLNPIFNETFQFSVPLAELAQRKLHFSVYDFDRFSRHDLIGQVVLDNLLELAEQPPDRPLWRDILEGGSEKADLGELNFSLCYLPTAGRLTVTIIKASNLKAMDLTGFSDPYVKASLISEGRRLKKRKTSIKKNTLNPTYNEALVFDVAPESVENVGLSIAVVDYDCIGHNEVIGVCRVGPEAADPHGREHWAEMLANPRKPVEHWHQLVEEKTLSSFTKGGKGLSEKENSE
B2: Synaptotagmin-6 (Mus musculus), Q9R0N8 (parent)
chain: MSGVWGAGGPRCQAALAVLASLCRARPPPLGLDVETCRSFELQSPEQSPSAADSGTSVSLLAVVVIVCGVALVAVFLFLFWKLCWMPWRKKEASSPSSANPASETLQSPSSRGNMADKLKDPSALGFLEAAVKISHTSPDIPAEVQMSVKEHIMRHTKLQRQTTEPASSTRHTSFKRHLPRQMHVSSVDYGNELPPAAAEQPTSIGRIKPELYKQKSVDGDDAKSEAAKSCGKINFSLRYDYESETLIVRILKAFDLPAKDFCGSSDPYVKIYLLPDRKCKLQTRVHRKTLNPTFDENFHFPVPYEELADRKLHLSVFDFDRFSRHDMIGEVILDNLFEASDLSRETSIWKDIQYATSESVDLGEIMFSLCYLPTAGRLTLTVIKCRNLKAMDITGYSDPYVKVSLLCDGRRLKKKKTTIKKNTLNPIYNEAIIFDIPPENMDQVSLLISVMDYDRVGHNEIIGVCRVGINAEGLGRDHWNEMLAYPRKPIAHWHSLVEVKKSFKEGTPRL
partner: B1 partner
B3: Synaptotagmin-10 (Mus musculus), Q9R0N4 (parent)
chain: MSFRKEDGVSSLCQKALHIITELCFAGQVEWDKCSGIFPADRSGQGGGGTDISVSLLAVVVSFCGLALLVVSLFVFWKLCWPCWKSKLVAPNLSVLPQSISSAPTEVFETEEKKEVEENEKPAPKAIEPAIKISHTSPDIPAEVQTALKEHLIKHARVQRQTTEPTSSSRHNSFRRHLPRQMNVSSVDFSVGTEPILQRGETRTSIGRIKPELYKQKSVDSEGNRKDDVKTCGKLNFALQYDYENELLVVKIIKALDLPAKDFTGTSDPYVKIYLLPDRKKKFQTRVHRKTLNPLFDELFQFPVVYDQLSNRKLHFSIYDFDRFSRHDMIGEVILDNLFEVSDLSREATVWKDIHCATTESIDLGEIMFSLCYLPTAGRMTLTVIKCRNLKAMDITGSSDPYVKVSLMCEGRRLKKRKTTTKKNTLNPVYNEAIIFDIPPENVDQVSLCIAVMDYDRVGHNEVIGVCRTGLDAEGLGRDHWNEMLAYHRKPITHWHPLLELPGRATSFDSQGSCSSPRPPSTP
partner: B2 chain
B4: Synaptotagmin-9 (Mus musculus), Q9R0N9 (parent)
chain: B1 chain
partner: B3 chain
B5: Synaptotagmin-6 (Mus musculus), Q9R0N8 (parent)
chain: B2 chain
partner: B3 chain
B6: Synaptotagmin-10 (Mus musculus), Q9R0N4 (parent)
chain: B3 chain
partner: B1 chain

Variants of: B1
Conditions: with syt3_mouse Syt3, O35681

Variant	effect of a mutation on the interaction
MPGARDALAHQALQLLAELCARGALEHDSCQDFIYHLRDRARPRLRDPDISVSLLTLVVTACGLALFGVSLFVSWKLCWVPWRERGLFSGSKDNNQEPLNYTDTETNEQENSEDFLDPPTPCPDSSMKISHTSPDIPLSTQPGGQENCAHAVRVQRQVTEPTPSARHNSIRRQLNLSNPDFNIQQLQRQEQLTGIGRIKPELYKQRSLDNDDGRRSNSKACGKLNFILKYDCDLEQLIVKIHKAVNLPAKDFSGTSDPYVKIYLLPDRKTKHQTKVHRKTLNPVFDEVFLFPVHYNDLEARKLHFSVYDFDRFSRHDLIGQVVVDHFFDLADFPRECILWKDIEYVTNDNVDLGELMFSLCYLPTAGRLTITIIKARNLKAMDITGASDPYVKVSLMCDGRRLKKRKTSTKRNTLNPVYNEAIVFDVPPESIDQIHLSIAVMDYDRVGHNEVIGVCQVGNEAERLGRDHWSEMLSYPRKPIAHWHSLMEKR [C9A]	decreasing interaction

Variants of: B2
Conditions: with syt3_mouse Syt3, O35681

Variant	effect of a mutation on the interaction
MSGVWGAGGPRAQAALAVLASLCRARPPPLGLDVETCRSFELQSPEQSPSAADSGTSVSLLAVVVIVCGVALVAVFLFLFWKLCWMPWRKKEASSPSSANPASETLQSPSSRGNMADKLKDPSALGFLEAAVKISHTSPDIPAEVQMSVKEHIMRHTKLQRQTTEPASSTRHTSFKRHLPRQMHVSSVDYGNELPPAAAEQPTSIGRIKPELYKQKSVDGDDAKSEAAKSCGKINFSLRYDYESETLIVRILKAFDLPAKDFCGSSDPYVKIYLLPDRKCKLQTRVHRKTLNPTFDENFHFPVPYEELADRKLHLSVFDFDRFSRHDMIGEVILDNLFEASDLSRETSIWKDIQYATSESVDLGEIMFSLCYLPTAGRLTLTVIKCRNLKAMDITGYSDPYVKVSLLCDGRRLKKKKTTIKKNTLNPIYNEAIIFDIPPENMDQVSLLISVMDYDRVGHNEIIGVCRVGINAEGLGRDHWNEMLAYPRKPIAHWHSLVEVKKSFKEGTPRL [C12A]	decreasing interaction

Variants of: B3
Conditions: with syt6_mouse Syt6, Q9R0N8

Variant	effect of a mutation on the interaction
MSFRKEDGVSSLAQKALHIITELCFAGQVEWDKCSGIFPADRSGQGGGGTDISVSLLAVVVSFCGLALLVVSLFVFWKLCWPCWKSKLVAPNLSVLPQSISSAPTEVFETEEKKEVEENEKPAPKAIEPAIKISHTSPDIPAEVQTALKEHLIKHARVQRQTTEPTSSSRHNSFRRHLPRQMNVSSVDFSVGTEPILQRGETRTSIGRIKPELYKQKSVDSEGNRKDDVKTCGKLNFALQYDYENELLVVKIIKALDLPAKDFTGTSDPYVKIYLLPDRKKKFQTRVHRKTLNPLFDELFQFPVVYDQLSNRKLHFSIYDFDRFSRHDMIGEVILDNLFEVSDLSREATVWKDIHCATTESIDLGEIMFSLCYLPTAGRMTLTVIKCRNLKAMDITGSSDPYVKVSLMCEGRRLKKRKTTTKKNTLNPVYNEAIIFDIPPENVDQVSLCIAVMDYDRVGHNEVIGVCRTGLDAEGLGRDHWNEMLAYHRKPITHWHPLLELPGRATSFDSQGSCSSPRPPSTP [C13A]	decreasing interaction

Variants of: B4
Conditions: with syt10_mouse Syt10, Q9R0N4

Variant	effect of a mutation on the interaction
MPGARDALAHQALQLLAELCARGALEHDSCQDFIYHLRDRARPRLRDPDISVSLLTLVVTACGLALFGVSLFVSWKLCWVPWRERGLFSGSKDNNQEPLNYTDTETNEQENSEDFLDPPTPCPDSSMKISHTSPDIPLSTQPGGQENCAHAVRVQRQVTEPTPSARHNSIRRQLNLSNPDFNIQQLQRQEQLTGIGRIKPELYKQRSLDNDDGRRSNSKACGKLNFILKYDCDLEQLIVKIHKAVNLPAKDFSGTSDPYVKIYLLPDRKTKHQTKVHRKTLNPVFDEVFLFPVHYNDLEARKLHFSVYDFDRFSRHDLIGQVVVDHFFDLADFPRECILWKDIEYVTNDNVDLGELMFSLCYLPTAGRLTITIIKARNLKAMDITGASDPYVKVSLMCDGRRLKKRKTSTKRNTLNPVYNEAIVFDVPPESIDQIHLSIAVMDYDRVGHNEVIGVCQVGNEAERLGRDHWSEMLSYPRKPIAHWHSLMEKR [C9A]	decreasing interaction

Variants of: B5
Conditions: with syt10_mouse Syt10, Q9R0N4

Variant	effect of a mutation on the interaction
MSGVWGAGGPRAQAALAVLASLCRARPPPLGLDVETCRSFELQSPEQSPSAADSGTSVSLLAVVVIVCGVALVAVFLFLFWKLCWMPWRKKEASSPSSANPASETLQSPSSRGNMADKLKDPSALGFLEAAVKISHTSPDIPAEVQMSVKEHIMRHTKLQRQTTEPASSTRHTSFKRHLPRQMHVSSVDYGNELPPAAAEQPTSIGRIKPELYKQKSVDGDDAKSEAAKSCGKINFSLRYDYESETLIVRILKAFDLPAKDFCGSSDPYVKIYLLPDRKCKLQTRVHRKTLNPTFDENFHFPVPYEELADRKLHLSVFDFDRFSRHDMIGEVILDNLFEASDLSRETSIWKDIQYATSESVDLGEIMFSLCYLPTAGRLTLTVIKCRNLKAMDITGYSDPYVKVSLLCDGRRLKKKKTTIKKNTLNPIYNEAIIFDIPPENMDQVSLLISVMDYDRVGHNEIIGVCRVGINAEGLGRDHWNEMLAYPRKPIAHWHSLVEVKKSFKEGTPRL [C12A]	decreasing interaction

Variants of: B6
Conditions: with syt9_mouse Syt9, Q9R0N9

Variant	effect of a mutation on the interaction
MSFRKEDGVSSLAQKALHIITELCFAGQVEWDKCSGIFPADRSGQGGGGTDISVSLLAVVVSFCGLALLVVSLFVFWKLCWPCWKSKLVAPNLSVLPQSISSAPTEVFETEEKKEVEENEKPAPKAIEPAIKISHTSPDIPAEVQTALKEHLIKHARVQRQTTEPTSSSRHNSFRRHLPRQMNVSSVDFSVGTEPILQRGETRTSIGRIKPELYKQKSVDSEGNRKDDVKTCGKLNFALQYDYENELLVVKIIKALDLPAKDFTGTSDPYVKIYLLPDRKKKFQTRVHRKTLNPLFDELFQFPVVYDQLSNRKLHFSIYDFDRFSRHDMIGEVILDNLFEVSDLSREATVWKDIHCATTESIDLGEIMFSLCYLPTAGRMTLTVIKCRNLKAMDITGSSDPYVKVSLMCEGRRLKKRKTTTKKNTLNPVYNEAIIFDIPPENVDQVSLCIAVMDYDRVGHNEVIGVCRTGLDAEGLGRDHWNEMLAYHRKPITHWHPLLELPGRATSFDSQGSCSSPRPPSTP [C13A]	decreasing interaction
